This is an account of results in patent US20260109758A1 (BIOSION, published 2026).

Assay [1] has as its target T1, recombinant human IL4Rα-his (human, UniProt P24394 26-231, limits assumed, biotin-labeled in the capture ELISA).
T1 construct: In-house made; not shown: His tag at the C-terminus
Put plainly: dual-binding ELISA: coated human IL4Rα-his, antibody titrated, detection with biotin human TSLP-his and SA-HRP; signal needs both antigens bound. As to the method: For the dual-binding ELISA, 96-well ELISA plates were firstly coated with 100 μL 1 μg/mL human IL4Rα-his protein (IL4Rα of SEQ ID NO: 33 with His tag at C terminus, prepared in-house) in PBS overnight at 4° C. ELISA plates were washed 4 times with wash buffer (PBS+0.05% Tween-20, PBST) and then blocked with 200 μL/well blocking buffer (5% w/v non-fatty milk in PBST) for 2 hours at 37° C. […] ELISA plates were washed again and incubated with SA-HRP (100 μl/well) for 40 minutes at 37° C. After the final wash, 100 μL/well TMB (Innoreagents) was added. The reaction was stopped 15 minutes later at room temperature with 50 μL/well 1M H₂SO₄, and the absorbance was read on a microplate reader using dual wavelength mode with 450 nm for TMB and 630 nm as the reference wavelength. The OD (450-630) values were plotted against antibody concentration. Data was analyzed using Graphpad Prism and EC₅₀ values were reported.
(ELISA stands for enzyme-linked immunosorbent assay.)

The target in assay [2] is T2, recombinant human TSLP-his (human, UniProt Q969D9 29-159, biotin-labeled in the ELISAs).
T2 construct: In-house made; not shown: His tag at the C-terminus
The assay can be described thus: SPR Biacore; TSLP-his amine-coupled to CM5 chip, antibody as analyte; 1:1 Langmuir fit. As to the method:
Un-reacted moieties on the biosensor surface were blocked with ethanolamine. Then, serially diluted purified bispecific antibodies and the controls (2-fold serial dilution in HBS-EP⁺ buffer starting at 100 nM) were respectively flowed onto the chip at a flow rate of 30 μL/min. The antigen-antibody association kinetics was followed for 4 minutes and the dissociation kinetics was followed for 13 minutes.
Background: SPR reads the build-up and loss of mass on a sensor chip optically.

Assay [3] addresses T2, recombinant human TSLP-his. Put plainly: competitive ELISA: antibody pre-mixed with biotin human TSLP-his; blocked binding to coated TSLPR-Fc/IL7Ra-Fc. The method, then:
Briefly, 100 μL human TSLPR-Fc proteins (SEQ ID NO: 34-SEQ ID NO: 38 fusion, prepared in-house) at 1 μg/mL in PBS, and 100 μL human IL7Ra-Fc proteins (SEQ ID NO: 35-SEQ ID NO: 38 fusion, prepared in-house) at 1 μg/mL in PBS were coated on 96-well micro plates overnight at 4° C. The next day, plates were washed with wash buffer (PBS+0.05% Tween-20, PBST), and blocked with 5% w/v non-fatty milk in PBST for 2 hours at 37° C. Plates were then washed again using wash buffer.
After incubation at 37° C. for 40 minutes, plates were washed 4 times using wash buffer. […] Plates were washed again using wash buffer. Finally, TMB was added and the reaction was stopped using 1M H₂SO₄. The absorbance was read on a microplate reader using dual wavelength mode with 450 nm for TMB and 630 nm as the reference wavelength, then the OD (450-630) values were plotted against the antibody concentration. Data was analyzed using Graphpad Prism and IC₅₀ values were reported.

Assay [4] has as its target T1, recombinant human IL4Rα-his. The assay can be described thus: SPR Biacore T200; antibody captured on anti-human IgG CM5 chip, IL4Rα-his as analyte; 1:1 Langmuir fit. A digest of the protocol: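 Antibodies captured on anti-human IgG CM5 chip (bispecifics at 66.67 nM, controls 10 μg/mL), then serially diluted recombinant human IL4Rα-his (C-terminal His tag) in HBS EP flowed at 30 μL/min. Association and dissociation curves fit to 1:1 Langmuir model.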

Assay [5] deals with T3, human IL4Rα expressed on 293F-IL4Rα cell surface (human, UniProt P24394 26-825).
T3 construct: whole, on cells; also called human IL4Rα-expressing cells; cell surface IL4R
The assay can be described thus: cell-based blocking FACS on 293F-IL4Rα cells; blocked ligand biotin human IL4. As to the method:
Then, 1×10⁵ cells per well were incubated in 96 well-plates in 100 μL of serially diluted bispecific antibodies, the positive controls or negative control (starting at 100 nM with a 5-fold serial dilution) in FACS buffer for 40 minutes on ice. […] The plates were washed twice with FACS buffer, and then added and incubated for 40 minutes at 4° C. in dark with 100 μL/well R-Phycoerythrin Streptavidin (1:500 dilution in FACS buffer, Jackson Immunoresearch, Cat #016-110-084). Cells were washed twice and resuspended in FACS buffer. Fluorescence was measured using a Becton Dickinson FACS Canto II-HTS equipment. Data was analyzed using Graphpad Prism and IC₅₀ values were reported.

The target of assay [6] is T1, recombinant human IL4Rα-his. The assay can be described thus: competitive ELISA: coated human IL4Rα-his, antibody titrated; blocked ligand biotin human IL4. The method, then:
Briefly, 100 μL human IL4Rα-his proteins (prepared in-house, IL4Rα of SEQ ID NO: 33 with C-terminal His tag) were coated on 96-well micro plates at 2 μg/mL in PBS overnight at 4° C. The next day, plates were washed with wash buffer (PBS+0.05% w/v Tween-20, PBST), and blocked with 5% w/v non-fatty milk in PBST for 2 hours at 37° C. Plates were then washed again using wash buffer. Serially diluted bispecific antibodies or the controls (starting at 100 nM with a 5-fold serial dilution) in 2.5% w/v non-fatty milk in PBST, 100 μL per well, were added to the IL4Rα bound plates, and incubated at 37° C. for 40 minutes. […] Plates were washed again using wash buffer. Thereafter, the plates were added with 100 μL/well of streptavidin conjugated HRP (1:10000 dilution in PBST buffer, Jackson Immunoresearch, Cat #016-030-084) and incubated for 40 minutes at 37° C. Plates were washed again using wash buffer. Finally, TMB was added and the reaction was stopped using 1M H₂SO₄, and the absorbance was read at 450 nm. Data was analyzed using Graphpad Prism and IC₅₀ values were reported.

B1: BSI-502-004 (bispecific antibody, human IgG1, kappa)
heavy: DIQMTQSPSSLSASVGDRVTITCRTSENIYSYLAWYQQKPGKAPKFLVYNAKTLAEGVPSRFSGSGSGTDFTLTISSLQPEDFATYYCQHYYGPPTWTFGQGTKVEIKGGGGSGGGGSGGGGSGGGGSEVQLVESGGGLVQPGGSLRLSCAASGFTFSTYGMSWVRQAPGKGLVWVATINSNGGSTSYPDSVKGRFTISRDNAKNTLYLQMNSLRAEDTAVYYCARFFRFRNAMDYWGQGTLVTVSSGGGGSGGGGSQVQLVQSGAEVKKPGASVKVSCKASGYTFTTYWMHWVRQAPGQGLEWMGVIDPSDSDTTYNQKFKGRVTMTRDTSTSTVYMELSSLRSEDTAVYYCTRSLDGYYDYWGQGTLVTVSSASTKGPSVFPLAPSSKSTSGGTAALGCLVKDYFPEPVTVSWNSGALTSGVHTFPAVLQSSGLYSLSSVVTVPSSSLGTQTYICNVNHKPSNTKVDKKVEPKSCDKTHTCPPCPAPEAQGGPSVFLFPPKPKDTLYITREPEVTCVVVDVSHEDPEVKFNWYVDGVEVHNAKTKPREEQYNSTYRVVSVLTVLHQDWLNGKEYKCQVSNKALPAPIEKTISKAKGQPREPQVYTLPPSRDELTKNQVSLTCLVKGFYPSDIAVEWESNGQPENNYKTTPPVLDSDGSFFLYSKLTVDKSRWQQGNVFSCSVMHEALHNHYTQKSLSLSPG
light: DIQMTQSPSSLSASVGDRVTITCRPTENIYSYLAWYQQKPGKAPKLLIYFARTLAEGVPSRFSGSGSGTDFTLTISSLQPEDFATYYCQHHYGTPWTFGGGTKVEIKRTVAAPSVFIFPPSDEQLKSGTASVVCLLNNFYPREAKVQWKVDNALQSGNSQESVTEQDSKDSTYSLSSTLTLSKADYEKHKVYACEVTHQGLSSPVTKSFNRGEC
notes: hu1C5F12E9-V8 IgG with an anti-IL4R scFv (VL-VH) at the N-terminus of the heavy chain; AQQ and YTE already stand in the entry
A word on the EC50: it is the concentration needed to bring the measured effect to its halfway point. The Kd is the concentration at which binding is half-saturated. What is called koff is a measure of how fast the partners let go of each other. In general, kon refers to a measure of how fast the partners come together. By IC50 is commonly meant the concentration needed to halve the response being measured. For B1, the EC50 in assay [1] was found to be 65.2 pM. In assay [2], the Kd stood at 3.42 pM, the koff was 1.71e-06 s⁻¹ and the kon is 499000 M⁻¹ s⁻¹. Besides, the IC50 in assay [3] was 144 pM. In assay [4], the Kd is 2430 pM, the koff was 0.000453 s⁻¹ and the kon was determined as 186000 M⁻¹ s⁻¹. This molecule registered a concentration for half-maximal inhibition (IC50) in assay [5] of 168 pM.

B2: BSI-502-001 (bispecific antibody, human IgG1, kappa)
heavy: EVQLVESGGGLVQPGGSLRLSCAASGFTFSTYGMSWVRQAPGKGLVWVATINSNGGSTSYPDSVKGRFTISRDNAKNTLYLQMNSLRAEDTAVYYCARFFRFRNAMDYWGQGTLVTVSSASTKGPSVFPLAPSSKSTSGGTAALGCLVKDYFPEPVTVSWNSGALTSGVHTFPAVLQSSGLYSLSSVVTVPSSSLGTQTYICNVNHKPSNTKVDKKVEPKSCDKTHTCPPCPAPEAQGGPSVFLFPPKPKDTLYITREPEVTCVVVDVSHEDPEVKFNWYVDGVEVHNAKTKPREEQYNSTYRVVSVLTVLHQDWLNGKEYKCQVSNKALPAPIEKTISKAKGQPREPQVYTLPPSRDELTKNQVSLTCLVKGFYPSDIAVEWESNGQPENNYKTTPPVLDSDGSFFLYSKLTVDKSRWQQGNVFSCSVMHEALHNHYTQKSLSLSPGKGGGGSGGGGSQVQLVQSGAEVKKPGASVKVSCKASGYTFTTYWMHWVRQAPGQGLEWMGVIDPSDSDTTYNQKFKGRVTMTRDTSTSTVYMELSSLRSEDTAVYYCTRSLDGYYDYWGQGTLVTVSSGGGGSGGGGSGGGGSGGGGSDIQMTQSPSSLSASVGDRVTITCRPTENIYSYLAWYQQKPGKAPKLLIYFARTLAEGVPSRFSGSGSGTDFTLTISSLQPEDFATYYCQHHYGTPWTFGGGTKVEIK
light: DIQMTQSPSSLSASVGDRVTITCRTSENIYSYLAWYQQKPGKAPKFLVYNAKTLAEGVPSRFSGSGSGTDFTLTISSLQPEDFATYYCQHYYGPPTWTFGQGTKVEIKRTVAAPSVFIFPPSDEQLKSGTASVVCLLNNFYPREAKVQWKVDNALQSGNSQESVTEQDSKDSTYSLSSTLTLSKADYEKHKVYACEVTHQGLSSPVTKSFNRGEC
notes: huC2C1A1A1-V15 IgG with an anti-TSLP scFv (hu1C5F12E9-V8, VH-VL) at the C-terminus of the heavy chain
With B2, the values for the IC50 in assay [6], in assay [3] and in assay [5] were 248 pM, 257 pM and 137 pM, respectively. Besides, the EC50 in assay [1] amounted to 34.9 pM. Also, the Kd in assay [2] is under 24.6 pM; in assay [4], 3090 pM. The koff in assay [2] is under 1e-05 s⁻¹; in assay [4], 0.000497 s⁻¹. Besides, the on-rate constant (kon) in assay [2] amounted to 407000 M⁻¹ s⁻¹; in assay [4] it was 161000 M⁻¹ s⁻¹.

B3: BSI-502-002 (bispecific antibody, human IgG1, kappa)
heavy: EVQLVESGGGLVQPGGSLRLSCAASGFTFSTYGMSWVRQAPGKGLVWVATINSNGGSTSYPDSVKGRFTISRDNAKNTLYLQMNSLRAEDTAVYYCARFFRFRNAMDYWGQGTLVTVSSASTKGPSVFPLAPSSKSTSGGTAALGCLVKDYFPEPVTVSWNSGALTSGVHTFPAVLQSSGLYSLSSVVTVPSSSLGTQTYICNVNHKPSNTKVDKKVEPKSCDKTHTCPPCPAPEAQGGPSVFLFPPKPKDTLYITREPEVTCVVVDVSHEDPEVKFNWYVDGVEVHNAKTKPREEQYNSTYRVVSVLTVLHQDWLNGKEYKCQVSNKALPAPIEKTISKAKGQPREPQVYTLPPSRDELTKNQVSLTCLVKGFYPSDIAVEWESNGQPENNYKTTPPVLDSDGSFFLYSKLTVDKSRWQQGNVFSCSVMHEALHNHYTQKSLSLSPGKGGGGSGGGGSDIQMTQSPSSLSASVGDRVTITCRPTENIYSYLAWYQQKPGKAPKLLIYFARTLAEGVPSRFSGSGSGTDFTLTISSLQPEDFATYYCQHHYGTPWTFGGGTKVEIKGGGGSGGGGSGGGGSGGGGSQVQLVQSGAEVKKPGASVKVSCKASGYTFTTYWMHWVRQAPGQGLEWMGVIDPSDSDTTYNQKFKGRVTMTRDTSTSTVYMELSSLRSEDTAVYYCTRSLDGYYDYWGQGTLVTVSS
light: DIQMTQSPSSLSASVGDRVTITCRTSENIYSYLAWYQQKPGKAPKFLVYNAKTLAEGVPSRFSGSGSGTDFTLTISSLQPEDFATYYCQHYYGPPTWTFGQGTKVEIKRTVAAPSVFIFPPSDEQLKSGTASVVCLLNNFYPREAKVQWKVDNALQSGNSQESVTEQDSKDSTYSLSSTLTLSKADYEKHKVYACEVTHQGLSSPVTKSFNRGEC
notes: huC2C1A1A1-V15 IgG with an anti-TSLP scFv (VL-VH) at the C-terminus of the heavy chain; AQQ and YTE already stand in the entry
On to B3, for which the IC50 in assay [6] came to 299 pM; in assay [3] it was 758 pM; in assay [5], 144 pM. Moreover, the EC50 in assay [1] was 136 pM. Besides, the Kd was under 47.2 pM in assay [2] and 1510 pM in assay [4]. Further, the koff in assay [2] is under 1e-05 s⁻¹; in assay [4], 0.000487 s⁻¹. In addition, the kon in assay [2] came to 212000 M⁻¹ s⁻¹; in assay [4], 323000 M⁻¹ s⁻¹.
